Reference: the supplement of paper PMC10065799, “High-throughput profiling of sequence recognition by tyrosine kinases and SH2 domains using bacterial peptide display” (eLife, 2023)

Key:
AncSZ = assay: phosphorylation enrichment, bacterial display (enrichment ratio); higher = better substrate or ligand; peptides without Tyr show the background
EPHB1 = EPHB1 (UniProt P54762); assay: as above
EPHB2 = EPHB2 (UniProt P29323); assay: as above
FGFR1 = FGFR1 (UniProt P11362); assay: as above
FGFR3 = FGFR3 (UniProt P22607); assay: as above
FGFR3, sequence (P22607 whole entry, looked up): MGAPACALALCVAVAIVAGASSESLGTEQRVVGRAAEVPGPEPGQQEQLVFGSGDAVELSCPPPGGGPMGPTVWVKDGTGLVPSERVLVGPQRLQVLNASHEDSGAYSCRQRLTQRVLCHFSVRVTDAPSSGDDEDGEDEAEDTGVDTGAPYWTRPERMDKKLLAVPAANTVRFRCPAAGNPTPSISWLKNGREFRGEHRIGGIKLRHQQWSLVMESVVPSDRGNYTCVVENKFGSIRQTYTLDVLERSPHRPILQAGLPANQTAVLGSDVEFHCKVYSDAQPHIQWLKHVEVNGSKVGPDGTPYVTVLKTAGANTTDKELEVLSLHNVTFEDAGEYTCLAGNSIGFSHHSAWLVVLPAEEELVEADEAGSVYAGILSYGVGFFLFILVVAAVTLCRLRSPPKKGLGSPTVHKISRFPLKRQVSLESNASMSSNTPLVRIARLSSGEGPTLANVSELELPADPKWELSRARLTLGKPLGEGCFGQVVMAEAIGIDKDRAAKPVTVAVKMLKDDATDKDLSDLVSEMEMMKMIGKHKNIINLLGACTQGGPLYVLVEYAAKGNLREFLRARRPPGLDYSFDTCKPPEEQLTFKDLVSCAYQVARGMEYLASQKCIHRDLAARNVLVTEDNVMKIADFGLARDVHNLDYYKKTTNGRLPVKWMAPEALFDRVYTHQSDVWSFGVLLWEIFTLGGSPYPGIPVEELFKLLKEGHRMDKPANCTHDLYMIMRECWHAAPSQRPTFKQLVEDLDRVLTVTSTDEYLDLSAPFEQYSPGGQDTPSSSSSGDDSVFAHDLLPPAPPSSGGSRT

Fer (mouse) = assay: as above
Fes = Fes (UniProt P07332); assay: as above
Fyn = Fyn (UniProt P06241); assay: as above
Hck = Hck (UniProt P08631); assay: as above
Jak2 = Jak2 (UniProt O60674); assay: as above
Jak2, sequence (O60674 whole entry, looked up): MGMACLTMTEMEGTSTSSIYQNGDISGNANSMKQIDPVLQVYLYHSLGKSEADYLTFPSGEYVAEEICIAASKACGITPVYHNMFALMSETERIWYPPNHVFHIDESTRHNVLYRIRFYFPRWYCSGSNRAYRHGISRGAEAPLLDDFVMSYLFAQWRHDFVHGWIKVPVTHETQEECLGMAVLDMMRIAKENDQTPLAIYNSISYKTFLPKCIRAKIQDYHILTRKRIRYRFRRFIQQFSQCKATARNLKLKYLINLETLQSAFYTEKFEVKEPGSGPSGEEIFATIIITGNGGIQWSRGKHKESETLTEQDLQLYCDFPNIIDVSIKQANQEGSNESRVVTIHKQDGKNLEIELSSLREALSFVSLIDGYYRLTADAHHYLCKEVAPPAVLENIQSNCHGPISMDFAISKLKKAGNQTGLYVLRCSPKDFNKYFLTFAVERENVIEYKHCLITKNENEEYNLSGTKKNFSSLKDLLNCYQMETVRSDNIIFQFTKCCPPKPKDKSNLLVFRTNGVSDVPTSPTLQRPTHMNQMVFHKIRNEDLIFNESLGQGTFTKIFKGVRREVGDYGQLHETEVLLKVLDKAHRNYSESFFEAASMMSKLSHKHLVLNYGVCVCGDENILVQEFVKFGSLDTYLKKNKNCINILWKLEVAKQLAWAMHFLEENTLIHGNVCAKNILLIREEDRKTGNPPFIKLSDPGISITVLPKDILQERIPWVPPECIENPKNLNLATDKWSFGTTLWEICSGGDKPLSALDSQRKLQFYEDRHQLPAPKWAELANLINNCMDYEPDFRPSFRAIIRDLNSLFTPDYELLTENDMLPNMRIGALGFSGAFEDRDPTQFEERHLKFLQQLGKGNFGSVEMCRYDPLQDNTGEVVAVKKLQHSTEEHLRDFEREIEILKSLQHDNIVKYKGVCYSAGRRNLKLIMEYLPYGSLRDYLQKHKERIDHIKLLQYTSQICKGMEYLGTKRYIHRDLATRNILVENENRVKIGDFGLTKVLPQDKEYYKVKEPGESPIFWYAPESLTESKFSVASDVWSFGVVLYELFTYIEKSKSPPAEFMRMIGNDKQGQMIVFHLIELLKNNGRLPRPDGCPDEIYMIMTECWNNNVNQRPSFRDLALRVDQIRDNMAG

MERTK = MERTK (UniProt Q12866); assay: as above
MERTK, sequence (Q12866 whole entry, looked up): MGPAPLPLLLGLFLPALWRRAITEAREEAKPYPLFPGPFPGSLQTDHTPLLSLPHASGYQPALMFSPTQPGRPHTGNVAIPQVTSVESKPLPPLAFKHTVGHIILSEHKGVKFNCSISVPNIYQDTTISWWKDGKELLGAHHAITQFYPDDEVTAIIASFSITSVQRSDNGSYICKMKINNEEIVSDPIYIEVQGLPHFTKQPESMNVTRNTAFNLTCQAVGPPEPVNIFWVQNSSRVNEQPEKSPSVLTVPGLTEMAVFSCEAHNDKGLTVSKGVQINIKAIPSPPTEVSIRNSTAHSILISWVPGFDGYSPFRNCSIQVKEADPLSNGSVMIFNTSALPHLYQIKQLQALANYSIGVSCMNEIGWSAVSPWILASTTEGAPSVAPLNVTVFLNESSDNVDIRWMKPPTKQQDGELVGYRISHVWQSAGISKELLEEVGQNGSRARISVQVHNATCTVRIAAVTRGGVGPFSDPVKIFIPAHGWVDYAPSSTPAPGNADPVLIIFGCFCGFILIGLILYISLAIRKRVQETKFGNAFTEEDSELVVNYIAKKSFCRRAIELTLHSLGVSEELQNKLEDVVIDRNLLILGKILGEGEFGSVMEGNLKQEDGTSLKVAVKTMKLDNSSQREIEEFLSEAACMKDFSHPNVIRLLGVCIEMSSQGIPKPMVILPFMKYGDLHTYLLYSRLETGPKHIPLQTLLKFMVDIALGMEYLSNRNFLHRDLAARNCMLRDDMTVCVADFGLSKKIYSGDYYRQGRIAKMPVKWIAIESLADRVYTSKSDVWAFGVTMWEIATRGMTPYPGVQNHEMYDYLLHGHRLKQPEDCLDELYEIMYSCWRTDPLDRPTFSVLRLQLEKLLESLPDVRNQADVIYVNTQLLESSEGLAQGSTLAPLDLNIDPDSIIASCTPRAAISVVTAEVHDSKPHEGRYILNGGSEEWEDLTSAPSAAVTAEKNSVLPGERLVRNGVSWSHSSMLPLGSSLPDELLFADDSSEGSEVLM

c-Abl (mouse) = assay: as above
c-Src = assay: as above
Grb2 SH2 = Grb2 SH2 (UniProt P62993); assay: SH2 binding enrichment of the phosphorylated peptide, bacterial display (enrichment ratio); higher = better substrate or ligand; peptides without Tyr show the background
Grb2 SH2, sequence (P62993 whole entry, looked up): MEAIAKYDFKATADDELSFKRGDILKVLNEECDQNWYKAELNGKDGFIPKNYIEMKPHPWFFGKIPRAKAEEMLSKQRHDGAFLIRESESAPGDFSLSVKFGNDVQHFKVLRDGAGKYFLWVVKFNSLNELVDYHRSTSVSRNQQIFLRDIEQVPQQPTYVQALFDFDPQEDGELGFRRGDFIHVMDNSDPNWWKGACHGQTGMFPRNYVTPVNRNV

SHP2-C SH2 = assay: as above
c-Src SH2 = assay: as above
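For SH2 binding enrichment of the phosphorylated peptide, bacterial display in this document: peptide library displayed on the E. coli surface as eCPX fusions, selected cells deep-sequenced, score is each peptide's frequency after selection divided by its frequency in the input.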
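For phosphorylation enrichment, bacterial display in this document: 11-residue human phosphosite peptides and single-mutation variants displayed on the E. coli surface, counted by deep sequencing, each peptide's frequency after selection divided by its frequency in the unselected input library; frequency after pTyr selection over input frequency; kinase dosed for 20-30% of maximal phosphorylation in three min.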

EPHB1, sequence (P54762 whole entry, looked up): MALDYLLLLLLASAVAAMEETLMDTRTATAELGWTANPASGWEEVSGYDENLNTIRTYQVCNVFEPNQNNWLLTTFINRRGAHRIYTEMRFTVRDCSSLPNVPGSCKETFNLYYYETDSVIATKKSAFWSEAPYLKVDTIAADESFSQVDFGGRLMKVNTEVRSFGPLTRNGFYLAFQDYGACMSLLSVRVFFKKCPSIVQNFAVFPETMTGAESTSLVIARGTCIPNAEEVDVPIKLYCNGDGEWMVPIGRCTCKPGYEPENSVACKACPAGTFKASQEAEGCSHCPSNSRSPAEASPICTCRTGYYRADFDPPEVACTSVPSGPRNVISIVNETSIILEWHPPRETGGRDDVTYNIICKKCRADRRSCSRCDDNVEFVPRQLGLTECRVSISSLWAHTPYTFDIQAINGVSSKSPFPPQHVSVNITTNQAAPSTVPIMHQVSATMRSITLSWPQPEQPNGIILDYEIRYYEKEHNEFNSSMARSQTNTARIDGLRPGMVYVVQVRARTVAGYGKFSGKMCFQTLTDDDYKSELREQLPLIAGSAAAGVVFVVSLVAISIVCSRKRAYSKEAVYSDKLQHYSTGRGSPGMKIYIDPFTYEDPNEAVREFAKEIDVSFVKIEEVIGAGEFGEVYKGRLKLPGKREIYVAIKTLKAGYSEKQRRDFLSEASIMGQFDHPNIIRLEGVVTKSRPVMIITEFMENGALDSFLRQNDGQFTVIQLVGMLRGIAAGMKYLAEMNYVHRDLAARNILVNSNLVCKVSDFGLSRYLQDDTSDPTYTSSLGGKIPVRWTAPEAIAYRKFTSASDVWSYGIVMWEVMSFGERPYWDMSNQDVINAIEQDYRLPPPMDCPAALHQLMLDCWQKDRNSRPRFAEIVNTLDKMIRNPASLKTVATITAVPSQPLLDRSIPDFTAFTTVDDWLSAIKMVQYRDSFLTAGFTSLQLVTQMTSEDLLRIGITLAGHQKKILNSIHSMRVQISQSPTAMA
FGFR1, sequence (P11362 whole entry, looked up): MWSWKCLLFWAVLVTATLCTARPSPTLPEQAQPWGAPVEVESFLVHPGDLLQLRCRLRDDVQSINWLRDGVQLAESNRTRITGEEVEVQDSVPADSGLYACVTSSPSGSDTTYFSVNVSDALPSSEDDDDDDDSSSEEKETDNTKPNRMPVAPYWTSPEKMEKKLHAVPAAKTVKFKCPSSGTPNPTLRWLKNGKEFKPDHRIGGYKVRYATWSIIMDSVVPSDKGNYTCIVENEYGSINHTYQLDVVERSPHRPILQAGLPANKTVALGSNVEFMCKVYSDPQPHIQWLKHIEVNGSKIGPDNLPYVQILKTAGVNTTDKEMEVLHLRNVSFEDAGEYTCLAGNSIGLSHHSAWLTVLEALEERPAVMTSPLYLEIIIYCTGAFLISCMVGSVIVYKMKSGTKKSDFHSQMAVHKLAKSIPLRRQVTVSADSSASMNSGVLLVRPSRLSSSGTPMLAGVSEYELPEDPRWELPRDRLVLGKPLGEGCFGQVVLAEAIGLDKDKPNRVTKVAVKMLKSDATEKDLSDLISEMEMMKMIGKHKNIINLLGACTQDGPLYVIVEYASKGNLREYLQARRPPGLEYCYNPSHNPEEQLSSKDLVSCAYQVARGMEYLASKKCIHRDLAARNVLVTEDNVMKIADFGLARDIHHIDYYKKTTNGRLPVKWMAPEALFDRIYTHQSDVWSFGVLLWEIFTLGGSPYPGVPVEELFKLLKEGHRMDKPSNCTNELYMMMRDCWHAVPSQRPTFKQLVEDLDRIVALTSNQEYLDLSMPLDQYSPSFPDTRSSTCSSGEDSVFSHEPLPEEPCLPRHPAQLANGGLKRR

Sequence | phosphorylation enrichment (AncSZ) | phosphorylation enrichment (EPHB1) | phosphorylation enrichment (EPHB2) | phosphorylation enrichment (FGFR1) | phosphorylation enrichment (FGFR3) | phosphorylation enrichment (Fer (mouse)) | phosphorylation enrichment (Fes) | phosphorylation enrichment (Fyn) | phosphorylation enrichment (Hck) | phosphorylation enrichment (Jak2) | phosphorylation enrichment (MERTK) | phosphorylation enrichment (c-Abl (mouse)) | phosphorylation enrichment (c-Src) | SH2 binding enrichment (Grb2 SH2) | SH2 binding enrichment (SHP2-C SH2) | SH2 binding enrichment (c-Src SH2)
AAPAAHDAADT [GAMT_Y27_Y27H] | 0.618 | 0.387 | 0.602 | 0.403 | 0.452 | 0.418 | 0.665 | 0.45 | 0.749 | 0.531 | 0.45 | 0.48 | 0.32 | 1 | 0.8 | 0.478
AARVSYWLASG [DCHS1_Y1582_R1583W] | 1.18 | 0.613 | 0.732 | 0.622 | 0.781 | 0.634 | 1.17 | 0.573 | 0.555 | 0.825 | 0.443 | 0.617 | 0.364 | 1.17 | 0.733 | 0.527
AAVDTVCRHNF [HLA-DRB1_Y107_Y107V_YF] | 0.765 | 0.521 | 0.577 | 0.499 | 0.533 | 0.54 | 1.29 | 0.398 | 0.429 | 1.15 | 0.488 | 0.937 | 0.491 | 0.888 | 0.479 | 0.529
AAYNRYDQERF [CDC73_Y293] | 0.681 | 0.401 | 0.463 | 0.521 | 0.538 | 0.433 | 0.752 | 0.457 | 0.447 | 0.646 | 0.518 | 0.512 | 0.468 | 0.737 | 0.585 | 0.497
ACRSLYGGFVE [MVD_Y164] | 1.11 | 0.568 | 0.642 | 0.625 | 0.727 | 0.605 | 1.04 | 11.2 | 7.94 | 0.698 | 0.621 | 0.511 | 7.11 | 0.751 | 0.808 | 0.574
ADLLVYIKALN [HPRT1_Y81_D80V] | 1.11 | 0.644 | 0.628 | 0.512 | 0.935 | 0.511 | 1.48 | 0.455 | 0.657 | 1.23 | 0.349 | 0.939 | 0.471 | 0.949 | 0.681 | 0.511
ADNSAYLMGLN [MYH7_Y386_K383N] | 0.865 | 0.629 | 0.566 | 0.512 | 0.61 | 0.497 | 0.932 | 0.514 | 0.603 | 1.11 | 0.473 | 0.738 | 0.587 | 0.993 | 0.723 | 0.556
ADRNHYRRYPR [YBX1_Y145] | 0.613 | 0.424 | 0.425 | 0.527 | 0.465 | 0.46 | 0.644 | 0.544 | 0.55 | 0.585 | 0.48 | 0.717 | 0.515 | 0.748 | 0.299 | 0.403
AEEEIYGEFEA [Src_opt_1995] | 1.51 | 0.808 | 0.75 | 0.694 | 1 | 0.923 | 1.49 | 1.26 | 1.12 | 1.29 | 0.58 | 0.97 | 1.14 | 0.774 | 0.69 | 0.483
AEPHTYEEPGR [EPHA8_Y616] | 1.08 | 0.511 | 0.476 | 0.506 | 0.581 | 0.433 | 0.824 | 0.489 | 0.485 | 0.749 | 0.501 | 0.675 | 0.439 | 0.882 | 0.862 | 6.34
AEPTGYSAELS [EZR_Y499] | 1.03 | 0.513 | 0.583 | 0.528 | 0.636 | 0.535 | 1.01 | 0.524 | 0.616 | 1.08 | 0.485 | 0.799 | 0.488 | 0.721 | 0.525 | 0.457
AERKLYRNVML [ZNF569_Y33_Q29E] | 0.45 | 0.365 | 0.408 | 0.367 | 0.407 | 0.359 | 0.519 | 0.337 | 0.319 | 0.653 | 0.383 | 0.453 | 0.312 | 1.76 | 1.65 | 1.24
AESPEYVHMFT [FAM111A_Y511_YF] | 1.32 | 0.579 | 0.598 | 1.69 | 1.58 | 0.542 | 1.12 | 0.502 | 0.629 | 1.11 | 0.407 | 0.703 | 0.443 | 0.878 | 0.564 | 0.528
AEVDTYCRHNY [HLA-DRB1_Y107_A103E] | 0.771 | 0.428 | 0.559 | 0.461 | 0.559 | 0.442 | 0.98 | 0.394 | 0.505 | 0.682 | 0.391 | 0.554 | 0.537 | 0.939 | 0.838 | 0.699
AFAEVYEGQVS [ALK_Y1131_G1128A] | 1.07 | 0.559 | 0.504 | 0.414 | 0.695 | 0.518 | 0.974 | 0.563 | 0.796 | 1.09 | 0.484 | 0.868 | 1.21 | 0.888 | 0.769 | 0.506
AFPVSYSSSGA [RET_Y687] | 0.511 | 0.455 | 0.314 | 0.407 | 0.406 | 0.392 | 0.541 | 0.344 | 0.303 | 0.52 | 0.454 | 0.53 | 0.477 | 0.767 | 0.65 | 0.506
AFSLKYEQQTQ [SYTL4_Y366] | 1.03 | 0.694 | 0.624 | 0.53 | 0.841 | 0.719 | 1.21 | 0.437 | 0.535 | 0.982 | 0.491 | 0.564 | 0.364 | 1.09 | 0.67 | 0.587

Sequence | phosphorylation enrichment (AncSZ) | phosphorylation enrichment (EPHB1) | phosphorylation enrichment (EPHB2) | phosphorylation enrichment (FGFR1) | phosphorylation enrichment (FGFR3) | phosphorylation enrichment (Fer (mouse)) | phosphorylation enrichment (Fes) | phosphorylation enrichment (Fyn) | phosphorylation enrichment (Hck) | phosphorylation enrichment (Jak2) | phosphorylation enrichment (MERTK) | phosphorylation enrichment (c-Abl (mouse)) | phosphorylation enrichment (c-Src) | SH2 binding enrichment (Grb2 SH2) | SH2 binding enrichment (SHP2-C SH2) | SH2 binding enrichment (c-Src SH2)
AGIENYTSRFG [NKD2_Y256] | 0.569 | 0.817 | 0.386 | 0.434 | 0.529 | 0.383 | 0.719 | 0.421 | 0.329 | 0.465 | 0.418 | 0.585 | 0.426 | 0.767 | 0.625 | 0.485
AGLVQYFMEHH [PTPN11_Y80_E76G_YF] | 0.955 | 0.655 | 0.592 | 0.538 | 0.782 | 0.474 | 1.12 | 0.513 | 0.565 | 0.962 | 0.456 | 0.741 | 0.452 | 0.844 | 0.845 | 0.599
AGQEGYDRLRP [RAC1_Y64_D63G] | 0.547 | 0.43 | 0.596 | 0.562 | 0.642 | 0.347 | 0.712 | 0.34 | 0.527 | 0.484 | 0.36 | 0.654 | 0.378 | 0.72 | 0.501 | 0.918
AGTILSHAHLD [ASS1_Y291_Y291S] | 0.75 | 0.788 | 0.459 | 0.364 | 0.546 | 0.374 | 0.847 | 0.367 | 0.412 | 0.707 | 0.289 | 0.622 | 0.384 | 0.696 | 0.55 | 0.374
AHAGEHGAEAL [HBA1_Y25_Y25H] | 0.521 | 0.378 | 0.439 | 0.476 | 0.451 | 0.419 | 0.703 | 0.354 | 0.479 | 0.491 | 0.382 | 0.454 | 0.461 | 0.782 | 0.763 | 0.484
AHAGEYGAGAL [HBA1_Y25_E28G] | 0.575 | 0.376 | 0.434 | 0.365 | 0.485 | 0.384 | 0.539 | 0.405 | 0.49 | 0.608 | 0.395 | 0.616 | 0.489 | 0.776 | 0.589 | 0.403
AHAGEYGVEAL [HBA1_Y25_A27V] | 0.83 | 0.492 | 0.631 | 0.499 | 0.678 | 0.448 | 0.9 | 0.525 | 0.547 | 0.793 | 0.422 | 0.595 | 0.402 | 0.872 | 0.79 | 0.493
AHAGKYGAEAL [HBA1_Y25_E24K] | 0.677 | 0.453 | 0.338 | 0.4 | 0.42 | 0.342 | 0.796 | 0.423 | 0.368 | 0.544 | 0.347 | 0.451 | 0.387 | 0.818 | 0.608 | 0.452
AHARMYGVLPW [PLP1_Y207_D203H] | 0.496 | 0.519 | 0.462 | 0.503 | 0.421 | 0.402 | 0.617 | 2.35 | 3.4 | 0.478 | 0.507 | 0.58 | 2.35 | 1.05 | 1.19 | 0.49
AHPGEYGAEAL [HBA1_Y25_A22P] | 0.801 | 0.516 | 0.51 | 0.453 | 0.559 | 0.425 | 0.768 | 0.488 | 0.486 | 0.563 | 0.443 | 0.634 | 0.408 | 0.728 | 0.707 | 0.508
AHPIIYTIIEA [PYKtide_no-pT_2014] | 0.892 | 5.42 | 1.3 | 1.57 | 1.44 | 3.1 | 1.21 | 3.29 | 2.74 | 0.838 | 7.03 | 1.85 | 3.47 | 1.21 | 1.66 | 1.5
AKKKMYSHKTK [AGXT_Y231_R233H] | 0.961 | 1.01 | 0.823 | 0.621 | 2.37 | 1.12 | 1.63 | 0.609 | 0.666 | 3.12 | 0.689 | 1.62 | 0.727 | 1.44 | 1.42 | 1.34
AKKMKYFEGVS [PRKDC_Y682_I680M] | 0.493 | 0.393 | 0.3 | 0.395 | 0.434 | 0.311 | 0.559 | 0.419 | 0.351 | 0.499 | 0.318 | 0.404 | 0.394 | 0.725 | 0.539 | 0.496
AKVKPYINGTS [IBTK_Y1064_V1065I] | 0.471 | 0.295 | 0.274 | 0.297 | 0.408 | 0.274 | 0.503 | 0.343 | 0.359 | 0.369 | 0.358 | 0.404 | 0.294 | 0.999 | 1.05 | 0.737
AKYLGYPPPEI [KDR_Y357] | 0.543 | 0.374 | 0.535 | 0.395 | 0.556 | 0.398 | 0.849 | 0.321 | 0.512 | 0.594 | 0.378 | 0.538 | 0.385 | 0.831 | 0.749 | 0.43
NHFKIYNLFAE [PTEN_Y68_C71Y_YF] | 1.14 | 0.931 | 1.14 | 0.933 | 1.36 | 0.946 | 1.33 | 2.73 | 1.53 | 0.612 | 0.329 | 0.573 | 1.64 |  |  | 
